Source: patent US20260167727A1 (FIBRO BIOMED TECHNOLOGY GUANGZHOU, published 2026)

Legend:
[1] = target: T1, mouse DDR2 in tissue (mouse, UniProt Q62371 22-854); test: near-infrared imaging of mouse lung tissue slices stained with ICG labeled 1A12 (untreated, bleomycin, mTGF-β)
T1 construct: whole, on cells; Endogenous protein in tissue slices, not a purified protein; also called DDR2 in mouse lung tissue slices; DDR2 in the mouse retina
T1 sequence (looked up): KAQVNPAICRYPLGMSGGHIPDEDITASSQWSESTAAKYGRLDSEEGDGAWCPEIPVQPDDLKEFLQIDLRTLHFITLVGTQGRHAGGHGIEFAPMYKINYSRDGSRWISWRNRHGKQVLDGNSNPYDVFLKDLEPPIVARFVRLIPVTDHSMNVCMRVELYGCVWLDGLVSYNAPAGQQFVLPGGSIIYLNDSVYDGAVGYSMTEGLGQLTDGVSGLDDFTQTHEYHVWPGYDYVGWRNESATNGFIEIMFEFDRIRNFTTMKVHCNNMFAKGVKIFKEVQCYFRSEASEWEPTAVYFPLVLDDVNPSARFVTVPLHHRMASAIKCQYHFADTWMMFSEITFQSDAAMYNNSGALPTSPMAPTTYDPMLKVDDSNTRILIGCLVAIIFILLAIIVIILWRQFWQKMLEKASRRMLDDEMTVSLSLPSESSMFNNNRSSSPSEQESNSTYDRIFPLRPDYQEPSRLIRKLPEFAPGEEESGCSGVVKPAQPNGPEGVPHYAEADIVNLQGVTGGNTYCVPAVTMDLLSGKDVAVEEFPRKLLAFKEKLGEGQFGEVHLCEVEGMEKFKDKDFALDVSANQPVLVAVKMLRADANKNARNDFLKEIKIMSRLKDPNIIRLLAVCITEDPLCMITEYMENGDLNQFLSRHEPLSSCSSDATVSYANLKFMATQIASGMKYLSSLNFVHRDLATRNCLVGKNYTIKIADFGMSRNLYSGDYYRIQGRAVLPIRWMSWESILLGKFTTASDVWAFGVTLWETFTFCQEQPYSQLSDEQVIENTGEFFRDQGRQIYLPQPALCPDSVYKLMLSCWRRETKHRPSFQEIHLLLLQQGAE
Method: Fresh lung tissue from normal mice was cut into a thickness of […]. One was used as an untreated control, one was induced with bleomycin, and the other one was induced with mTGF-β cytokines, both for 72 hours (both treatment groups were able to promote DDR2 expression). Then, each group was stained with ICG labeled DDR2 nano-antibody 1A12 (1 ug per sample) for 30 minutes, followed by washing multiple times with PBS to remove non-specific staining. Then, imaging was performed using a live imaging device.

[2] = target: T2, human DDR2 in lung tissue (human, UniProt Q16832 22-855); test: imaging of lung tissue slices of IPF patients and normal donors stained with ICG labeled 1A12
T2 construct: whole, on cells; Endogenous protein in tissue slices; also called DDR2 in lung tissue of IPF patients
T2 sequence (looked up): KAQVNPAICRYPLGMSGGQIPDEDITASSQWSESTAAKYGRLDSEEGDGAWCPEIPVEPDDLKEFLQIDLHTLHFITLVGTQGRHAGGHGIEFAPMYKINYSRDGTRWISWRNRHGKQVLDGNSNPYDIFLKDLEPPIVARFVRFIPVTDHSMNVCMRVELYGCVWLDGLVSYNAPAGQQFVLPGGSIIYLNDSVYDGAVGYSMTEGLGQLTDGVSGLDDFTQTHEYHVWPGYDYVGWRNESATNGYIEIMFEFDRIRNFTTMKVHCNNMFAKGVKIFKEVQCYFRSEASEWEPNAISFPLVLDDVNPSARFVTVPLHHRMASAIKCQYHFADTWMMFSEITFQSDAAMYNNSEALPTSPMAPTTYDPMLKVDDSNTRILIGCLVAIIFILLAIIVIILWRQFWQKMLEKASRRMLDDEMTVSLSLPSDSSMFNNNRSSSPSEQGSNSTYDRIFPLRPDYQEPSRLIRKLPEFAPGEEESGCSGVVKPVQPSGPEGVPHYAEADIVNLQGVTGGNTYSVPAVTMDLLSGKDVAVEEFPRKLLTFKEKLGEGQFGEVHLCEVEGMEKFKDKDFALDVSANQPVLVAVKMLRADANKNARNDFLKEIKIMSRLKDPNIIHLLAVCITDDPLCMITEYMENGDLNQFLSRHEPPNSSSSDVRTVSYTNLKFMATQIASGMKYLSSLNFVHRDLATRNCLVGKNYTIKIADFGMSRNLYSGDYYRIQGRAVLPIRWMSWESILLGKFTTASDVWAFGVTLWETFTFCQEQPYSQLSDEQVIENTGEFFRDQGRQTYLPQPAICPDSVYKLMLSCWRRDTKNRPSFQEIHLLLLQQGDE
Method: Lung tissues from normal donors and patients with idiopathic pulmonary fibrosis (IPF) were cut to a thickness of 600 μm in vitro, with high expression of DDR2 in IPF patients' lung tissues and low or no expression of DDR2 in normal donors' lungs. The Normal group was used as control, and lung tissue slices from IPF patients were used as the experimental group. After staining with ICG labeled DDR2 nano-antibody 1A12, in vitro live imaging was performed.

[3] = target: T3, bovine serum albumin (bovine, UniProt P02769 25-607); test: ELISA at one antibody amount, wells coated with antigen-DDR2 or BSA, OD450
T3 construct: also called BSA; negative control protein
T3 sequence (P02769 25-607 limits assumed): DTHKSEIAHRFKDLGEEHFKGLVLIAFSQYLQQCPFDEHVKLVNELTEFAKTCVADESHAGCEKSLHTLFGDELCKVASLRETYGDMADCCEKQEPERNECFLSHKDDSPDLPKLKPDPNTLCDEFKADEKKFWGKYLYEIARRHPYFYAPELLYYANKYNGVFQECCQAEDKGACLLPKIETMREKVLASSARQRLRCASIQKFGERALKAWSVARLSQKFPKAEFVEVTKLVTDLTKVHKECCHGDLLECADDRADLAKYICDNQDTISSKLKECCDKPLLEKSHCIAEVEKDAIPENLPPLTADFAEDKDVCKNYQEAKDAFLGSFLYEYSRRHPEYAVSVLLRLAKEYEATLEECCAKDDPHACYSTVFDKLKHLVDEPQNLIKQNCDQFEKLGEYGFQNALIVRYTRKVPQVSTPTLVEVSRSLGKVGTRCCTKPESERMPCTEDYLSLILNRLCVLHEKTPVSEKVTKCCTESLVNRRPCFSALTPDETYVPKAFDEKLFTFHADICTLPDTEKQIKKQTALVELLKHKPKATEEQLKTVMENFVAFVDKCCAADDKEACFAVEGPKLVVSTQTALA
Method: The Flag tag was fused into the nano-antibody gene coding sequence and five DDR2 antibodies with Flag tag were expressed and purified: TAT, 1A5, 1A12, 1B2, 1B3; Then, the extracellular segment of DDR2 antigen was used to coat at 100 ng/well→goat serum was used to block overnight→PBS was used to wash three times, anti-DDR2 (five purified DDR2 antibodies, all comprising Flag tag) 200 ng/well, 37° C. 1 h→Anti Flag (Sigma, F1804-200UG, 1 mg/ml) 1:2500, 37° C. 1 h→G&M (HRP) 1:5000, 37° C. 30 min (horseradish peroxidase labeled anti Flag antibody amplification signal, TMB staining)→TMB staining at 37° C. 30 min→1M HCl for termination; A blank control was prepared simultaneously.
+[0199]5 nano-antibodies that were expressed and purified and identified as correct in the previous step, along with the extracellular segment of DDR2 antigen and the negative control protein bovine serum albumin (BSA), were subjected to ELISA validation.

[4] = target: T4, human DDR2 extracellular segment (human, UniProt Q16832 22-399); test: ELISA, plate coated with DDR2 extracellular segment, Flag-tagged nano-antibody titrated, anti-Flag then HRP secondary, TMB, OD450; parameters: unit not given here
T4 construct: range 22-399; In BLI it carried a His tag (printed 'Hig tag') and was captured on Ni-NTA; also called extracellular segment of DDR2 antigen; extracellular segment protein of DDR2 antigen
T4 sequence (looked up): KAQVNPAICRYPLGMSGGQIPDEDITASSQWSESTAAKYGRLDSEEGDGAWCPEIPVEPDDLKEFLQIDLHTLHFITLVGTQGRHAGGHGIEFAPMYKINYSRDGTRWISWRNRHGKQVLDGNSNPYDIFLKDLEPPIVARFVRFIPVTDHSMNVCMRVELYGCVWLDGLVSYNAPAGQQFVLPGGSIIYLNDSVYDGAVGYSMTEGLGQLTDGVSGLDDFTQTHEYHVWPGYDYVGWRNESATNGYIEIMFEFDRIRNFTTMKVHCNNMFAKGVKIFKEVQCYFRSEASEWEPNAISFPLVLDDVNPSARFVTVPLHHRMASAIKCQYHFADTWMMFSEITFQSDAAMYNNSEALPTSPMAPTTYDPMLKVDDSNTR

[5] = target: T5, DDR2 antigen overexpressed on cells (UniProt Q16832); test: flow cytometry on 293T DDR2 cells, anti-His-488 secondary; control on 293T DDR2 R3 0.94%; on parental 293T cells 1A1-1A12 R3 0.44% and control R3 0.46%
T5 sequence (looked up): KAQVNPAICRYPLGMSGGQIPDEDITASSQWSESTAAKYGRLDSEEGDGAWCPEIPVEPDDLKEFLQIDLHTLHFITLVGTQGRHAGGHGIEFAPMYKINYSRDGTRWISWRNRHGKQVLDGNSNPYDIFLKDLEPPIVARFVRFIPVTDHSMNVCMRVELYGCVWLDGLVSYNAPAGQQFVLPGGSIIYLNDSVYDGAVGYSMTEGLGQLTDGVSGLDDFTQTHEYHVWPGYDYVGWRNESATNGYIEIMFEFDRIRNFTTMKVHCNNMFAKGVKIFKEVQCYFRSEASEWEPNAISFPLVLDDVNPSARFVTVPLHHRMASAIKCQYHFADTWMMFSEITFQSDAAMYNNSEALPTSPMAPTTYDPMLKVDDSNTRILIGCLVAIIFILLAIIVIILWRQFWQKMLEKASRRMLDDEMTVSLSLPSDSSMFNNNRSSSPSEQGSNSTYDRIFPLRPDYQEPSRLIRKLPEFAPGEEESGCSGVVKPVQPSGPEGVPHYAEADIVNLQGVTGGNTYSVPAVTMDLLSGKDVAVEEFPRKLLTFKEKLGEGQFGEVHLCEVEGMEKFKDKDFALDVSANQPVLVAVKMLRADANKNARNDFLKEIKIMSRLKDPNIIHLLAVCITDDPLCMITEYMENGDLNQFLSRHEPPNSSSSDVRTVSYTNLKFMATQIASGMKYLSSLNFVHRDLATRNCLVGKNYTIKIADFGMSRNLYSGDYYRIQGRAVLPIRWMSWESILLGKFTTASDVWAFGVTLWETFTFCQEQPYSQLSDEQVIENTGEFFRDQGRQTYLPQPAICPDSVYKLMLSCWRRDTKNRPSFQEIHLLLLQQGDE

B1: ICG labeled DDR2 nano-antibody 1A12 (VHH)
VHH: EVQLVESGGGLVQPGGSLRLSCAASGYILSPNVMGWFRQAPGKGRELVAAISWGDGRTYYPDSVEGRFTISRDNAKRMVYLQMNSLRAEDTAVYYCAASRKGYPSTRSDPYNYWGQGTQVTVSS
modifications: indocyanine green (ICG) coupled with ICG-NHS; sites not stated
notes: also called ICG labeled 1A12 nano-antibody; Nb-DDR2 labeled with indocyanine green
binding result [1]: binds | binding result [2]: binds

B2: anti-DDR2 nano-antibody 1A1 (VHH)
VHH: EVQLVESGGGLVQPGGSLRLSCAASGRIFSINVMGWFRQAPGKGRELVAAINTRGGSTYYPDSVEGRFTISRDNAKRMVYLQMNSLRAEDTAVYYCAASRKGYPSTRSDPYDYWGQGTQVTVSS
notes: Expressed in E. coli BL21(DE3); also called 1A1-VHH
binding result [3]: no binding

B3: anti-DDR2 nano-antibody 1A12 (VHH)
VHH: EVQLVESGGGLVQPGGSLRLSCAASGYILSPNVMGWFRQAPGKGRELVAAISWGDGRTYYPDSVEGRFTISRDNAKRMVYLQMNSLRAEDTAVYYCAASRKGYPSTRSDPYNYWGQGTQVTVSS
notes: also called 1A12-VHH; DDR2 antibody 1A12
binding result [3]: no binding | EC50 (read off the curve) [4]: ~1

B4: heterodimeric anti-DDR2 nano-antibody 1A1-1A12 (bispecific antibody, part only; not given: His tag, not shown: small tags and cut ends)
chain, part: EVQLVESGGGLVQPGGSLRLSCAASGYILSPNVMGWFRQAPGKGRELVAAISWGDGRTYYPDSVEGRFTISRDNAKRMVYLQMNSLRAEDTAVYYCAASRKGYPSTRSDPYNYWGQGTQVTVSSGGGSGGGSGGGSEVQLVESGGGLVQPGGSLRLSCAASGRIFSINVMGWFRQAPGKGRELVAAINTRGGSTYYPDSVEGRFTISRDNAKRMVYLQMNSLRAEDTAVYYCAASRKGYPSTRSDPYDYWGQGTQVTVSS
R3, percent of cells in the FITC-H positive gate [5]: 33%

B5: anti-DDR2 nano-antibody 1B2 (VHH)
VHH: EVQLVESGGGLVQPGGSLRLSCAASGYIFSIYAMGWFRQAPGKGRELVARISWGDGSTWYPDSVEGRFTISRDNAKRMVYLQMNSLRAEDTAVYYCAAAIKGRGVVTQLGYNYWGQGTQVTVSS
notes: also called 1B2-VHH
binding result [3]: no binding

B6: anti-DDR2 nano-antibody 1A5 (VHH)
VHH: EVQLVESGGGLVQPGGSLRLSCAASGITLSLYIMGWFRQAPGKGRELVAAISRTGGSTYYPDSVEGRFTISRDNAKRMVYLQMNSLRAEDTAVYYCAADFYGNATLGYNYWGQGTQVTVSS
notes: also called 1A5-VHH
binding result [3]: no binding

B7: anti-DDR2 nano-antibody 1B3 (VHH)
VHH: EVQLVESGGGLVQPGGSLRLSCAASGDTFSYYVMGWFRQAPGKGRELVAAISRTGGSTYYPDSVEGRFTISRDNAKRMVYLQMNSLRAEDTAVYYCAADPYISGTLGYNYWGQGTQVTVSS
notes: also called 1B3-VHH
binding result [3]: no binding
